From patent US12098378B2, “Anti-fungal polypeptides” (priority 2020, dated 2024)

Assays:
Phakopsora pachyrhizi = assay: Control of soybean rust on soybeans in glasshouse; format: in vivo
Procedure: Four replicates of pot-grown soybean plants (4 plants/pot) were sprayed with 125 ml aqueous suspension, containing a concentration of active ingredient of as described in Table 1. Two applications were done spaced 14 days apart. Plants were inoculated once with Phakopsora pachyrhizi two days after the first application (application A) of active ingredient. The growth inhibitory characteristics of 10G11Q were compared to those of a non-antifungal reference VHH molecule, a non-treated control and the systemic chemical Quadris Top SBX (azoxystrobin, difeconazole).
Disease severity is recorded as percent severity on a scale of 0-100%. Recording started when first symptoms appear followed by weekly assessment at least till 3 weeks after the second application (application B) of the active ingredient. Percent severity ratings are separated based on the position on the plant: Percent severity low canopy, Percent severity mid canopy and Percent severity upper canopy to track the progress of the disease well and following the natural development of the disease in nature.
Time indications in the graphs on the x-axis concern the time of recording of disease severity or incidence. These are relative and are indicated by the number of days after application when recording occurred. For example, a recording 13 Days After the second application (application B) will be represented as 13DAB. This code is applicable for FIG. 15 to FIG. 28.

Uncinula necator = assay: Control of powdery mildew on grapevine in field; format: in vivo; details: 250, 500, 750 g ai/ha, 8 applications, until four weeks after application
Procedure: Four replicates of 10 vines (25 m^2 per plot) were treated with 8 or 10 l of spray solution, corresponding with a spray volume of […], according to local practice and growth stage of the vines. The spray mix contained a concentration of active ingredient as described in Table 4. Eight applications were performed, spaced on average 10 days apart. No artificial infection was performed and first spray was at pre-bloom stage, before first powdery mildew symptoms. The efficacy 10G11 was compared to that of a non-treated control and the chemical reference Topas 10 EC (Penconazole). In addition, a chemical rotation of Tiovit Jet (sulphur), Vivando (Metrafenon), Sercadis (Fluxapyroxad), Prosper 500 EC (Spiroxamine) and Karathane Star (Meptyldinocap) was evaluated. A seventh treatment replaced part of the chemicals in this chemical rotation by 10G11 as described in Table 4.
Efficacy assessments were performed on leaves by evaluating the percentage of leaf area affected on 100 leaves randomly selected from the same position on the shoot. In addition, powdery mildew infection on fruits was assessed as the percentage of infected area of 50 randomly selected bunches per plot. Assessments continued until 4 weeks after the last application.

B1: 10G11: VHH polypeptide, SEQ ID NO: 2, begins with a D residue (protein)
VHH: DVQLVESGGGLVQAGGSLRLSCAASRSIFSINAMDWYRQAPGKQREWVAGITRGGTTKYADSVKGRFTISRDNAKKKVYLQMNSLKPEDTAVYYCNVLRGEQPWTRDYWGQGTQVTVSS
Phakopsora pachyrhizi; 250, 500, 750 g ai/ha, 2 applications, until 3 weeks after the second application, vs reference VHH and non-treated inoculated control (FIG. 15)
  percent severity of Asian soybean rust, lower canopy: prominent and dose-related growth inhibition pattern
Phakopsora pachyrhizi; 250, 500, 750 g ai/ha, 2 applications, until 3 weeks after the second application, vs reference VHH and non-treated inoculated control (FIG. 16)
  percent severity of Asian soybean rust, mid canopy: prominent and dose-related growth inhibition pattern
Phakopsora pachyrhizi; 250, 500, 750 g ai/ha, 2 applications, until 3 weeks after the second application, vs reference VHH and non-treated inoculated control (FIG. 17)
  percent severity of Asian soybean rust, upper canopy: prominent and dose-related growth inhibition pattern
Phakopsora pachyrhizi; 750 g ai/ha
  activity compared with chemical reference Quadris Top SBX: on par
Uncinula necator; very high disease pressure (FIG. 20)
  severity of powdery mildew on grape leaves (percentage of leaf area affected): clear and dose-related performance
Uncinula necator; very high disease pressure (FIG. 21)
  severity of powdery mildew on grape bunches (percentage of infected area): clear and dose-related performance
